Source: patent US6649744B1, “Rnase P polypeptides, polynucleotides, and methods using their mechanisms of action” (SmithKline Beecham Corporation, priority 1999, dated 2003)
Where two headings read alike, the source gives them in different places.

What was measured:
[1] = tested on: E. coli ptRNA^met; experiment: Cleavage of ptRNAmet by RNase P RNA or holoenzyme (gel, autoradiography); type: biochemical; settings: 100 mM TrisCl pH8, 100 mM MgCl2, 5% PEG
Protocol: E. coli ptRNA^met, a substrate for RNase P, was transcribed in vitro by T7 RNA polymerase (Epicenter) in the presence of [α-32P] UTP to internally label the RNA. The DNA template pGem3Z-ptRNA was linearized with BstNI restriction endonuclease to allow run-off transcription. The transcription was performed in a 20 μl reaction at 37° C. for 60min. To remove unincorporated nucleotides the 93 nt RNA (sequence shown below) was cleaned under non-denaturing conditions using a CLONTECH Chroma-Spin 10 column. To calculate the specific activity of the RNA probe, 1 μl samples were removed before and after cleaning, mixed with 5 ml scintillation cocktail and counted in a scintillation counter. ptRNAmet in pGem-3Z, sequence of the transcript (93mer) 5′→3′ [SEQ ID NO: 12]: GGGCGAAUUCGCCUCGGCUACGUAGCUCAGUUGGUUAGAGCACAUCACUCAUAAUGAUGGGGUCACAGGUUCGAAUCCCGUCGUAGCCACCAG
(§1) E. coli M1 RNA is able to cleave ptRNA^met or the minimal substrate p6AT-1 in 100 mM NH4Cl, 100 mM TrisCl pH 7.5, 100 mM MgCl2. The conditions for cleavage of either substrate by S. aureus SP RNA were unknown and clearly deviated from those optimized for E. coli. A large number of different buffer conditions were investigated in order to determine optimal buffer conditions for either substrate cleavage by the S. aureus ribozyme.
(§2) Cleavage reactions (20 μl) were all performed at 37° C. for 30 min with 100 nM SP RNA and an additional 200 nM SP protein in the holoenzyme reactions. Substrates (ptRNA^met or p6AT-1) were added in trace amounts (single-turnover reactions). Cleavage was monitored by size resolution of the intact precursor and the cleaved leader sequence by denaturing gel elctrophoresis and autoradiography or visualization on the phosphorimager (Molecular Dynamics Storm 860).

[2] = tested on: S. aureus pre-tRNA^phe; experiment: RNase P kinetics (Michaelis Menten) with cloned pre-tRNAphe as substrate; type: biochemical; settings: 50 mM Tris pH8.0, 1 M NH4Cl, 200 mM MgCl2, 5% PEG
Protocol: A cloned pre-tRNA^phe was used as a substrate for kinetic characterizations for both the holoenzyme and RNA only reactions.
RNase P RNA-only kinetics in the following buffer: 50 mM Tris, pH8.0, 1 M NH4Cl, 200 mM MgCl2, and 5% PEG. […] In both experiments, a cloned pre-tRNA^phe was used as substrate.

[3] = tested on: p6AT-1; experiment: Cleavage of minimal substrate p6AT-1 by RNase P RNA or holoenzyme (gel, autoradiography); type: biochemical
Protocol: The chemically synthesized 42nt RNA molecule p6AT-l was 5′ end-labeled with high specific activity [γ-^32p] ATP ([…]) using bacteriophage T4 polynucleotide kinase. The labeling was performed in a 10 μl reaction at 37° C. for 30 min. The enzyme was heat-inactivated at 95° C. for 2 min. To remove salts, unincorporated nucleotides and the enzyme, p6AT-1 was gel purified from a 20% polyacrylamide TBE gel with 7M urea. The RNA was extracted from the gel slice and precipitated with 300 mM NaOAc and 2.5 volumes 100% ethanol. After a spin at 14,000 g and 4° C. the RNA pellet was washed twice with chilled 70% ethanol. The pellet was air dried and subsequently resuspended in 50 μl water. 0.5 μl were spotted onto a filter paper disk and counted in a scintillation counter (Cherenkov analysis).
as §1, §2

[4] = biological target: S. aureus RNase P RNA; experiment: Filter binding / gel-shift assay of RNase P protein to RNase P RNA
Protocol: The RNase P RNA/protein interactions were investigated by gel mobility shift and filter binding experiments.
Binding isotherm of RNase P RNA obtained by filter binding assay was asswssed. The 3′-end labeled RNA was mixed with the protein in the binding buffer containing 20 mM K-Hepes, pH8.0, 0.01% NP-40, 400 mM NH4OAc, 10 mM MgCl2, and 5% glycererol. The Kd value was generated by fitting the data with Grafit 4 one-site ligand binding equation: % binding=plateau/(1+Kd/[S. aureus protein]).

B1: SP RNA: S. aureus RNase P catalytic RNA component, transcribed in vitro from plasmid pSPR with T7 RNA polymerase; gene SEQ ID NO:3 (nucleic acid, listed as Staphylococcus aureus)
DNA: GTTCTGATATTTTGGGTAATCGCTATATTATATAGAGGAAAGTCCATGCTCACACAGTCTGAGATGATTGTAGTGTTCGTGCTTGATGAAACAATAAATCAAGGCATTAATTTGACGGCAATGAAATATCCTAAGTCTTTCGATATGGATAGAGTAATTTGAAAGTGCCACAGTGACGTAGCTTTTATAGAAATATAAAAGGTGGAACGCGGTAAACCCCTCGAGTGAGCAATCCAAATTTGGTAGGAGCACTTGTTTAACGGAATTCAACGTATAAACGAGACACACTTCGCGAAATGAAGTGGTGTACGACAGATGGTTATCACCTGAGTACCAGTGTGACTAGTGCACGTGATGAGTACGATGGAACAGAACATGGCTTATAGAAATATCACTACTA
modifications: RNA transcript of gene
ptRNAmet substrate processed ([1]; 150 mM KCl): more than 50% | ptRNAmet substrate processed ([1]; 800 mM KCl): 82% | ptRNA cleaved ([1]; KCl 1M or above): 85% | pre-tRNAphe processing, RNA-only [2]: efficiently processed | p6AT-1 cleavage ([3]; 10 mM MgCl2, 2M KCl, 100 mM TrisCl pH8, 5% PEG): No cleavage | p6AT-1 cleavage ([3]; 1M KCl or NH4Cl, 100 mM TrisCl pH7.5, 100 mM MgCl2): hardly any cleavage product detectable | p6AT-1 cleavage, maximal level ([3]; 1.5M KCl, 100 mM TrisCl pH8, 100 mM MgCl2, 5% PEG, 37° C. 30 min, 100 nM SP RNA): 27% | p6AT-1 cleavage ([3]; KCl below 400 mM, 100 mM TrisCl pH8, 100 mM MgCl2, 5% PEG): No cleavage

B2: S. aureus RNase P protein: 117 amino acid translation product of the S. aureus spp gene, SEQ ID NO:2, expressed as MBP fusion and cleaved (protein, listed as Staphylococcus aureus)
chain: MLLEKVYRIKKNADFGRIYKKGHSVANRQFVVYTCNNKEIDHFRLGISVSKKLGNAVLRNKIKRAIRENFKVHKSHILAKDIIVIARQPAKDMTTLQIQNSLEHVLKIAKVFNKKIK
Kd ([4]; 20 mM K-Hepes pH8.0, 0.01% NP-40, 400 mM NH4OAc, 10 mM MgCl2, 5% glycererol, 3′-end labeled RNA, read-out: Kd, filter binding isotherm): 0.008 ± 0.001 µM | Kd ([4]; filter binding and gel-shift assays, read-out: binding constant of the complex): 0.02 µM
